Data on three molecules can be found in patent US11976099B2, “Compositions and methods for treatment of bone associated diseases” (THE NATIONAL INSTITUTE FOR BIOTECHNOLOGY IN THE NEGEV LTD., priority 2016, dated 2024).

The test deals with T1, murine c-FMS (Mus musculus, UniProt P09581).
T1 construct: endogenous in cells; host or cells: primary bone marrow derived monocytes from wild-type C57BL6 mice
T1 sequence (P09581 20-977): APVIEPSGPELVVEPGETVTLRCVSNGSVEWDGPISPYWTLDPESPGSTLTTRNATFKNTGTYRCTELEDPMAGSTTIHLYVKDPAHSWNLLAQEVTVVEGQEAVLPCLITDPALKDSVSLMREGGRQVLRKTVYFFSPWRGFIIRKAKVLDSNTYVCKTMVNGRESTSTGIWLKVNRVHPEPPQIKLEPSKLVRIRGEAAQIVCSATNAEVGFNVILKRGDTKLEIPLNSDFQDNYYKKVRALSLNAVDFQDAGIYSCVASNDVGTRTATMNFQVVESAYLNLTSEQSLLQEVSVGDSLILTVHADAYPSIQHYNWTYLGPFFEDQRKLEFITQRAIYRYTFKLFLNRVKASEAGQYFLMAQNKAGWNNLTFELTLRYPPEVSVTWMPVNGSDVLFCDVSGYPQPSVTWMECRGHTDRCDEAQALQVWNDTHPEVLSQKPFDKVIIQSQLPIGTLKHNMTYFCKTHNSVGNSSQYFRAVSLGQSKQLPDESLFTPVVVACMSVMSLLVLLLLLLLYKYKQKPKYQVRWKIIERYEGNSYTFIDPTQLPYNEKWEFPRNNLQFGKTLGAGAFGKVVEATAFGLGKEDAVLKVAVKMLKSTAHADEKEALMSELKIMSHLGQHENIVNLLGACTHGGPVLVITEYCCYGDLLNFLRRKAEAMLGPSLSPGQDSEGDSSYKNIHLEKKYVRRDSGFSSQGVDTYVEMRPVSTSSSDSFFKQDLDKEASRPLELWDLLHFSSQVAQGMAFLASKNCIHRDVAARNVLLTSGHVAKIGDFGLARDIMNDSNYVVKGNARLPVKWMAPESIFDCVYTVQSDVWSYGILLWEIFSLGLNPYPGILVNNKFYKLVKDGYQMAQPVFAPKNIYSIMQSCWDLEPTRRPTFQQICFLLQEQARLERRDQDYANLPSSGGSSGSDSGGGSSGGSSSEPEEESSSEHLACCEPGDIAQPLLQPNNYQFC
Kind of test: c-FMS phosphorylation assay in BMMs (western blot). The format is cell-based. The conditions noted are these: for c-FMS phosphorylation level: 0.5 nM murine M-CSFWT + 1 μM variant, versus control. As to the method: Phosphorylation assay—The experiment was performed on two cell types, BMMs and human peripheral blood CD14^+ monocytes, as follows: (i) BMMs from wild-type C57BL6 mice were purified by flushing the bone marrow from the femur and tibia as previously described (Levaot, N., Simoncic, P. D., Dimitriou, I.D., Scoffer, A., La Rose, J., Ng, A. H. M. et al. (2011) J. Clin. Invest. 121, 3244-3257). The cells were treated with ACK red cells lysis buffer (ThermoFisher Scientific, USA) and grown in complete α-MEM growth medium (Sigma-Aldrich, USA) containing 10% fetal bovine serum (FBS) (selected to not contain LPS to prevent macrophage differentiation), penicillin, streptomycin and L-glutamine. Recombinant murine M-CSF was added at a concentration of 40 ng/ml (Peprotech, Israel) for three days at 37° C. to induce adhesion and proliferation of monocytes. Then, 7×10^5 cells were transferred into a 6-well plate with complete α-MEM and 20 ng/ml murine M-CSF and RANKL (R&D Systems, USA) for 48 h. (ii) CD 14^+ monocytes (Lonza, Switzerland) were grown in complete α-MEM medium for five days in the presence of human M-CSF (20 ng/mL). Then, 3.5×10^5 cells were transferred to a 24-well plate with complete α-MEM medium, […] human M-CSF (R&D Systems, USA) and 20 ng/ml murine RANKL for 72 h. At this point, the medium was replaced with a starvation medium (α-MEM without FBS) for 4 h. After starvation, the cells were washed with PBS and incubated in a starvation medium containing 0.5 nM murine (BMMs) or human (CD14+) M-CSF and 100 nM (CD14^+ cells) or 1 μM (BMMs) of either M-CSFC31S or M-CSFC31S,M27R for 1 min. To test the phosphorylation levels in the absence of murine M-CSFWT, we incubated 0.5, 5, 10, 50, 1000 and 5000 nM of M-CSFC31S or M-CSFC31S,M27R and 0.5,5.10 nM of human M-CSFWT with the cells. The positive control contained 0.5 nM murine (BMMs) or human (CD14^+) M-CSF, and the negative control was incubated in starvation medium without any added protein. The cells were transferred to ice, and lysis buffer (deoxycholate 0.5%, […], 10 mM NaPO4, 1 mM sodium orthovanadate, 5 mM EDTA, pH 7.4, 5 mM EGTA, pH 7.4, 100 mM NaCl, 2% Triton X-100) was added. […] The images were quantified using ImageJ. The quantified intensity values of the phosphorylated c-FMS for each sample were divided by the total c-FMS intensity, and then by the β-actin expression intensity. […]
To determine whether M-CSFC31S,M27R binds and also antagonizes c-FMS, the phosphorylation of the receptor following incubation with different M-CSF variants was evaluated. […] The cells were lysed, and the expression and phosphorylation levels of c-FMS were evaluated using western blot. C-FMS phosphorylation level was quantified and normalized. […]

Numbering of substitutions follows the chain as printed. Numbers in names are those of the source. Entries after “also recorded” stand apart in the source; their conditions may differ.

B1: M-CSFM: 158 amino acid M-CSF with cysteine at position 31 replaced by serine (SEQ ID NO: 2) (protein)
chain: EEVSEYCSHMIGSGHLQSLQRLIDSQMETSSQITFEFVDQEQLKDPVCYLKKAFLLVQDIMEDTMRFRDNTPNAIAIVQLQELSLRLKSCFTKDYEEHDKACVRTFYETPLQLLEKVKNVFNETKNLLDKDWNIFSKNCNNSFAECSSQGHERQSEGS
For the molecule B1, where the note is “BMMs”, the c-FMS phosphorylation level result was “increased levels of phosphorylation”.

B2: M-CSFWT: wild-type human M-CSF, disulfide-bond-linked homodimer which binds and activates c-FMS (protein)
chain: B1 chain with S31C
B2: the “peak concentration of bell-shaped c-FMS phosphorylation curve” value (BMMs, 1 minute, without murine M-CSF) came to 5 nM.

B3: M-CSFC31S,M27R: M-CSF double mutant containing both C31S and M27R; monomeric, monospecific c-FMS antagonist (protein)
chain: B1 chain with M27R
In the case of B3, the “c-FMS phosphorylation (agonist activity)” value (0.5-5000 nM without murine M-CSF) was “very limited c-FMS phosphorylation at any concentration other than 5 μM; also recorded: did not exhibit phosphorylation capabilities in concentrations lower than 5 μM”. In addition, the c-FMS phosphorylation level entry (BMMs) is “lower levels of phosphorylated c-FMS”.
